According to article PMC7416571 (Journal of molecular biology, 2019):

How the values were obtained:
Experiment in all cases: AUC
[1] = target: T1, phage λ terminase large subunit TerL^λ, wild type (phage λ, UniProt P03708 1-641)
T1 sequence (looked up): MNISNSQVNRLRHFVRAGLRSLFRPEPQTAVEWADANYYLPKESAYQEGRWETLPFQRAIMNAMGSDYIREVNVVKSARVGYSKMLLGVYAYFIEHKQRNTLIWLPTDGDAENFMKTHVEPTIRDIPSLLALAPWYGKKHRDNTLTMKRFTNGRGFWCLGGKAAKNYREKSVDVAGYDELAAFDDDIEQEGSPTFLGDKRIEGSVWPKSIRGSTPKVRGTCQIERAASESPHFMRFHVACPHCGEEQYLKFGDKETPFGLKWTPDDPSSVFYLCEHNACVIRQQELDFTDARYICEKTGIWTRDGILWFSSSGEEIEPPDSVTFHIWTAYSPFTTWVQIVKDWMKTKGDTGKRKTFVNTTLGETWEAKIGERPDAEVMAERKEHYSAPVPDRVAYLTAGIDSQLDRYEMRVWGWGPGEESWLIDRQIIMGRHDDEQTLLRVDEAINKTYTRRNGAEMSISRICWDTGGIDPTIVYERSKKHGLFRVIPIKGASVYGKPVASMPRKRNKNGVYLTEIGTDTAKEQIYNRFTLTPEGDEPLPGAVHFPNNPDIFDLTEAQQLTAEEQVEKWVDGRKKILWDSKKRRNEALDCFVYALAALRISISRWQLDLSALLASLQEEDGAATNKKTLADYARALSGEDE

[2] = target: T2, phage λ terminase large subunit TerL^λ-D178N (phage λ, UniProt P03708 1-641, D178N)
T2 sequence (looked up): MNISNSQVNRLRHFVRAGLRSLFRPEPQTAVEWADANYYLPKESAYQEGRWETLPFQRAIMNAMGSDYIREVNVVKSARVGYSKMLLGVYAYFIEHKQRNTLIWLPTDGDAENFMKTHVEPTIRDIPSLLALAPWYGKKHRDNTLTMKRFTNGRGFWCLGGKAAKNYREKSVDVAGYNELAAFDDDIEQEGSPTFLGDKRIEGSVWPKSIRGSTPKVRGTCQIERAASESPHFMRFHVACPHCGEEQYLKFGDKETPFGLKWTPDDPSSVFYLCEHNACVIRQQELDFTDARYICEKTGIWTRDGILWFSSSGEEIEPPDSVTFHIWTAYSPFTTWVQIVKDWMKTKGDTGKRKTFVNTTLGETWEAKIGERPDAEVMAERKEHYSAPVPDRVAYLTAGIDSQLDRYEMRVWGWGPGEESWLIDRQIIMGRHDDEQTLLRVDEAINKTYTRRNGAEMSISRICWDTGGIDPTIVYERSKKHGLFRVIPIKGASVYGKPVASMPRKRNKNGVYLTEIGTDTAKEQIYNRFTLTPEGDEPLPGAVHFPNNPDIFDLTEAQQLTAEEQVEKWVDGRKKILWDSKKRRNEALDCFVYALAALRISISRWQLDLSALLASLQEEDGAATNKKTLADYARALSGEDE

AUC = target: the molecule itself

Measured: binding result

B1: phage λ terminase small subunit TerS^λ (natural protein, UniProt P03707 1-181, looked up)
chain: MEVNKKQLADIFGASIRTIQNWQEQGMPVLRGGGKGNEVLYDSAAVIKWYAERDAEIENEKLRREVEELRQASEADLQPGTIEYERHRLTRAQADAQELKNARDSAEVVETAFCTFVLSRIAGEIASILDGLPLSVQRRFPELENRHVDFLKRDIIKAMNKAAALDELIPGLLSEYIEQSG
binds: all assays above
